# Results reported in PMC3686915.
# B1: -45 NFAT hairpin (structured_DNA)
# DNA: GATAATATTTTTCCAGAATTACACAAATTCTGGAAAAATATTATC
# modifications: 5' biotin
# Target: NFATc2 full length;cJun full length (;, UniProt Q13469-2;P05412 1-921;1-331, |)
# Assay: DNA pull-down, Western blot
binder,measurement,value
B1,binding result,binds
